Results: patent US20100216975A1
One block for each molecule: values may come before it.

Legend:
[1] = target: Human EphA2-Fc fusion protein (human EphA2 fused with the Fc portion of a human IgG1) (human) (UniProt P29317); assay: single point ELISA, 500 ng goat anti-human Fab capture, biotinylated EphA2-Fc; plate of clone VH-7E8/VL-8G7
[2] = target: Human EphA2-Fc fusion protein (human EphA2 fused with the Fc portion of a human IgG1) (human) (UniProt P29317); assay: single point ELISA, 500 ng goat anti-human Fab capture, biotinylated EphA2-Fc; plate of clone VH-233/VL-8G7
[3] = target: Human EphA2-Fc fusion protein (human EphA2 fused with the Fc portion of a human IgG1) (human) (UniProt P29317); assay: single point ELISA, 500 ng goat anti-human Fab capture, biotinylated EphA2-Fc; plate of clone VH-233/VL-12C8
[4] = target: Human EphA2-Fc fusion protein (human EphA2 fused with the Fc portion of a human IgG1) (human) (UniProt P29317); assay: single point ELISA: periplasmic Fab captured on 500 ng goat anti-human Fab, biotinylated human EphA2-Fc, neutravidin-HRP
[5] = target: Human EphA2-Fc fusion protein (human EphA2 fused with the Fc portion of a human IgG1) (human) (UniProt P29317); assay: single point ELISA, 500 ng goat anti-human Fab capture, biotinylated EphA2-Fc; plate of clone VH-2G6/VL-12C8
[6] = target: Human EphA2-Fc fusion protein (human EphA2 fused with the Fc portion of a human IgG1) (human) (UniProt P29317); assay: single point ELISA: periplasmic Fab captured on 500 ng goat anti-human Fab, biotinylated human EphA2-Fc, neutravidin-HRP; remark: listed apart in the source
[7] = target: Human EphA2-Fc fusion protein (human EphA2 fused with the Fc portion of a human IgG1) (human) (UniProt P29317); assay: single point ELISA: periplasmic Fab captured on 100 ng goat anti-human Fab, biotinylated human EphA2-Fc, neutravidin-HRP
[8] = target: Human EphA2-Fc fusion protein (human EphA2 fused with the Fc portion of a human IgG1) (human) (UniProt P29317); assay: single point ELISA, 500 ng goat anti-human Fab capture, biotinylated EphA2-Fc; plate of clone VH-6H11/VL-8G7
[9] = target: Human EphA2-Fc fusion protein (human EphA2 fused with the Fc portion of a human IgG1) (human) (UniProt P29317); assay: single point ELISA: periplasmic Fab captured on 20 ng goat anti-human Fab, biotinylated human EphA2-Fc, neutravidin-HRP
[10] = target: Human EphA2-Fc fusion protein (human EphA2 fused with the Fc portion of a human IgG1) (human) (UniProt P29317); assay: single point ELISA: periplasmic Fab captured on 500 ng goat anti-human Fab, biotinylated human EphA2-Fc, neutravidin-HRP; remark: listed apart in the source
[11] = target: Human EphA2-Fc fusion protein (human EphA2 fused with the Fc portion of a human IgG1) (human) (UniProt P29317); assay: SPR (BIAcore 3000), IgG over immobilized EphA2-Fc (~500 RU), 1:1 Langmuir fit
[12] = target: Human EphA2-Fc fusion protein (human EphA2 fused with the Fc portion of a human IgG1) (human) (UniProt P29317); assay: SPR (BIAcore 3000), IgG over immobilized EphA2-Fc, 1:1 Langmuir fit

Sequence of Human EphA2-Fc fusion protein (human EphA2 fused with the Fc portion of a human IgG1) (human) (P29317 24-534 limits assumed): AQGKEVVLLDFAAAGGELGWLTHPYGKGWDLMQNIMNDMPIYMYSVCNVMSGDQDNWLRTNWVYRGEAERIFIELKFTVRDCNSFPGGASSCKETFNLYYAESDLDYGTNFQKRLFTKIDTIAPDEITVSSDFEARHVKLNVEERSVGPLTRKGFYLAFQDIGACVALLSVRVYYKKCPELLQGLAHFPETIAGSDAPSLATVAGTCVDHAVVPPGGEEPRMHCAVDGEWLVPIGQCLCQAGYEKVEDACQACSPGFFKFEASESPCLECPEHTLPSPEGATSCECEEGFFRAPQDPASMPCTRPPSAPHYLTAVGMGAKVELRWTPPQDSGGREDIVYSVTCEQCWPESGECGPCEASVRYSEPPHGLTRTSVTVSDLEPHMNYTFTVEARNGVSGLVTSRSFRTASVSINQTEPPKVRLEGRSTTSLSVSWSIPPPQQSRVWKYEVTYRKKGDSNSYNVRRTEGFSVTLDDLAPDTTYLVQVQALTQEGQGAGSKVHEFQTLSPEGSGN

Molecule: irrelevant antibody (MEDI-493)
OD450 (background signal) [1]: 0.2 | OD450 (background signal) [2]: 0.2 | OD450 (background signal) [3]: 0.1 | OD450 (background signal) [4]: 0.3 | OD450 (background signal) [5]: 0.3 | OD450 (background signal) [6]: 0.07 to 0.1 | OD450 (background signal) [7]: 0.1 to 0.4 | OD450 (background signal) [8]: 0.2 | OD450 (background signal) [9]: 0.1 | OD450 (background signal) [10]: 0.06 to 0.2

B1: mouse anti-human EphA2 monoclonal antibody EA2 (antibody, from a related filing, V domains shown)
VH: DVKLVESGGGLVKPGGSLKLSCAASGFTFSSYTMSWVRQTPEKRLEWVATISSGGTYTYYPDSVKGRFTISRDNAKNTLYLQMSSLKSEDTAMYYCTREAIFTYWGQGTLVTVSA
VL: DIKMTQSPSSMYASLGERVTITCKASQDINNYLSWFQQKPGKSPKTLIYRANRLVDGVPSRFSGSGSGQDYSLTISSLEYEDMGIYYCLKYDEFPYTFGGGTKLEIK
Kd [11]: 5.94 nM | koff [11]: 0.00307 s⁻¹ | kon [11]: 517000 M⁻¹ s⁻¹

Results, then the molecule that gave them:

Kd [12]: 0.4 nM | koff [12]: 0.00011 s⁻¹ | kon [12]: 280000 M⁻¹ s⁻¹
B2: mouse anti-human EphA2 monoclonal antibody B233 (antibody, from a related filing, V domains shown)
VH: EVKLVESGGGLVQPGGSLSLSCAASGFTFTDYSMNWVRQPPGKALEWLGFIRNKANDYTTEYSASVKGRFTISRDNSQSILYLQMNALRAEDSATYYCVRYPRYHAMDSWGQGTSVTVSS
VL: DIVLTQSPATLSVTPGDSVNLSCRASQSISNNLHWYQQKSHESPRLLIKYVFQSISGIPSRFSGSGSGTDFTLSINSVETEDFGMYFCQQSNSWPLTFGAGTKLELK

Kd [12]: 0.3 nM | koff [12]: 8e-05 s⁻¹ | kon [12]: 240000 M⁻¹ s⁻¹
B3: chimaeric form of mAb B233 (VH-233/VL-233) as full length human IgG1 (antibody, from a related filing, V domains shown)
VH: EVKLVESGGGLVQPGGSLSLSCAASGFTFTDYSMNWVRQPPGKALEWLGFIRNKANDYTTEYSASVKGRFTISRDNSQSILYLQMNALRAEDSATYYCVRYPRYHAMDSWGQGTSVTVSS
VL: DIVLTQSPATLSVTPGDSVNLSCRASQSISNNLHWYQQKSHESPRLLIKYVFQSISGIPSRFSGSGSGTDFTLSINSVETEDFGMYFCQQSNSWPLTFGAGTKLELK
